Data published in KR20180112916A (dated 2018).

Biological target: T1, B-세포 에피토프 펩타이드 Myc362 (human)
T1 construct: Synthetic peptide of over 90% purity, coated on the ELISA plate at 5 ug/ml; also called Myc362 펩타이드
Assay: ELISA; Myc362 peptide coated at 5 ug/ml, antibody in serial dilution, HRP anti-IgG detection

T1 sequence (peptide, as listed by the source): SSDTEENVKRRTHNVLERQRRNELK

B1: 2E2F12 단클론 항체 (anti-Myc362 펩타이드-특이적인 단클론 항체) (antibody, V domains shown)
VH: EVQLQESGTELVKPGASVKLSCKASGYTFTSYWMHWVKLRPGQGFEWIGEINPSSGGTNYNENFKRKATLTVDRSSSTAYMQLSSLTSEDSAVYYCTIHRSYWGQGTTLTVSS
VL: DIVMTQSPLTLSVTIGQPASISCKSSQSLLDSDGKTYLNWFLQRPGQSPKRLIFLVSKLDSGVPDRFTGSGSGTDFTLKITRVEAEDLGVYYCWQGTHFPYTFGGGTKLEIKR
notes: also called 2E2F12 클론; anti-c-Myc 단클론 항체
B1 was tested, and the Kd was about 37 nM.
